# Reference: article PMC3753642
# Legend:
# Experiment in all cases: EMSA
# Conditions in all cases: TNK buffer (composition and pH not in material), 30 C
# [1] = target: Hfq TM R16A;R17A;R19D (Escherichia coli) (UniProt P0A6X3)
# [2] = target: Hfq WT (Escherichia coli) (UniProt P0A6X3)
# [3] = target: Hfq:R16A R16A (Escherichia coli) (UniProt P0A6X3)
Substance,Kd [1] [nM],Kd [2] [nM],Kd [3] [nM]
DsrA sRNA,300,132,373
rpoS323 mRNA leader,,144,196
RprA sRNA,,187,623
ArcZ56 sRNA,,49,190
